Data: patent US20130078247A1 (Boehringer Ingelheim, published 2013)
Several values for one entry are separate records, joined by “and”; a condition that tells them apart may be missing. Identical values can stand only once.

Legend:
[1] = target: recombinant human DLL4 extracellular domain, C-terminally His-tagged (R&D Systems) (human, UniProt Q9NR61 25-522, biotinylated in the competition assays (sites not given)); test: cell-based or functional assay
[2] = target: human DLL4, full length, overexpressed on CHO or HEK293 cells (human, UniProt Q9NR61 27-685); test: cell-based or functional assay
[3] = target: T1, recombinant human Jagged-1 (Alexis) (human, UniProt P78504 34-1067, limits assumed); test: binding ELISA on coated rhJagged-1
T1 construct: also called hJagged-1; hJAG1
Procedure: Absence of binding to homologous ligands human DLL1 and human Jagged-1 is assessed via solid phase binding assay (ELISA). In brief, human DLL1 (Alexis, San Diego, Calif., USA) and human Jagged-1 (Alexis, San Diego, Calif., USA) are coated overnight at 4° C. at 1 μg/mL in a 96-well MaxiSorp plate (Nunc, Wiesbaden, Germany). Wells are blocked with a casein solution (1% in PBS). VHHs are applied as dilution series and binding is detected using a mouse anti-myc (Roche) and an anti-mouse-AP conjugate (Sigma, St. Louis, Mo., USA).

mouse Ang2 = target: T2, mouse Ang2 (mouse, UniProt O35608 19-496, limits assumed); test: competition ELISA: mAng2 binding to mTie2
T2 construct: also called mAng2
T2 sequence (looked up): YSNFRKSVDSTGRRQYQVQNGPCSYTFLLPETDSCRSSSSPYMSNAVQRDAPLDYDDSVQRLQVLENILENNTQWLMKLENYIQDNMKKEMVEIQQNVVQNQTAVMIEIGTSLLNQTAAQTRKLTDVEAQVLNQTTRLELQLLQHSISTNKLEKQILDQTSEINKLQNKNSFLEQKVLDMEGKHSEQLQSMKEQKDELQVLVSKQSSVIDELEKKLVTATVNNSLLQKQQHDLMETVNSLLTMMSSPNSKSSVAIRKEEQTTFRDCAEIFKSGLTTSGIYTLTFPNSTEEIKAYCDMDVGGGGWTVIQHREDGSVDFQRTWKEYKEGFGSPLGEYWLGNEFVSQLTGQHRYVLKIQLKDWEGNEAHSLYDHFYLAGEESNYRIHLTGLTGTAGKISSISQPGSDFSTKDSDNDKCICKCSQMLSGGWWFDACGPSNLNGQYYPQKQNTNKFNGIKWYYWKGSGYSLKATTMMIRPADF

cynomolgus Ang2 = target: T3, cynomolgus Ang2 (cynomolgus); test: competition ELISA: cAng2 binding to cTie2
T3 construct: also called cAng2; cyno Ang2

human Ang2 = target: T4, human Ang2 (human, UniProt O15123 19-496, limits assumed); test: competition ELISA: hAng2 binding to hTie2
T4 construct: also called hAng2; human Angiopoietin2
T4 sequence (looked up): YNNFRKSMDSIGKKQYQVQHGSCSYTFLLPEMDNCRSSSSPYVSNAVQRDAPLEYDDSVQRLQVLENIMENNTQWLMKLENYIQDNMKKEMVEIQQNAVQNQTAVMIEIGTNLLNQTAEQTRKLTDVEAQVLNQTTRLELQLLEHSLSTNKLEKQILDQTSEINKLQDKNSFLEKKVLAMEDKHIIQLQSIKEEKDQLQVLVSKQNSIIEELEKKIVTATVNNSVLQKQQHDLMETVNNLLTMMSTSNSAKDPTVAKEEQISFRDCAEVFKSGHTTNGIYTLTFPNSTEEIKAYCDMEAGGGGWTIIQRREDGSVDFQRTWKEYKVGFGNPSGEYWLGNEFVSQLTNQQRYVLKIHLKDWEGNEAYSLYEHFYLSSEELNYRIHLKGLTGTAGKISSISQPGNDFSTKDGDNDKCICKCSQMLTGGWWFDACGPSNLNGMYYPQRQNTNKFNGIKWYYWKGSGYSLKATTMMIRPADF

recombinant mouse DLL4 = target: T5, recombinant mouse DLL4 (mouse, UniProt Q9JI71 27-532); test: binding ELISA, coated mDLL4
T5 construct: extracellular domain; also called rmDLL4; mDLL4; not shown: C-terminal His tag
Procedure: (§1) In order to determine cross-reactivity to mouse DLL4 and rat DLL4, a binding ELISA is performed. […] Wells are blocked with a 1% casein solution. VHHs are applied as dilution series and binding is detected biotinylated anti-VHH 1A4 followed by extravidin-HRP. 1A4 is an anti-VHH VHH (generated in-house by Ablynx NV). As reference binding to human DLL4 is measured.

rat DLL4 = target: T6, rat DLL4 (rat, UniProt D3ZHH1 28-530, limits assumed); test: binding ELISA, coated rat DLL4
T6 construct: also called rDLLA; rDLL4
Procedure: as §1

[4] = target: T7, cynomolgus DLL4 overexpressed on CHO cells (cynomolgus, UniProt Q9NR61 27-685 (human entry)); test: FACS, CHO-cDLL4 cells
T7 construct: also called CHO-cDLL4; cDLL4
T7 chain: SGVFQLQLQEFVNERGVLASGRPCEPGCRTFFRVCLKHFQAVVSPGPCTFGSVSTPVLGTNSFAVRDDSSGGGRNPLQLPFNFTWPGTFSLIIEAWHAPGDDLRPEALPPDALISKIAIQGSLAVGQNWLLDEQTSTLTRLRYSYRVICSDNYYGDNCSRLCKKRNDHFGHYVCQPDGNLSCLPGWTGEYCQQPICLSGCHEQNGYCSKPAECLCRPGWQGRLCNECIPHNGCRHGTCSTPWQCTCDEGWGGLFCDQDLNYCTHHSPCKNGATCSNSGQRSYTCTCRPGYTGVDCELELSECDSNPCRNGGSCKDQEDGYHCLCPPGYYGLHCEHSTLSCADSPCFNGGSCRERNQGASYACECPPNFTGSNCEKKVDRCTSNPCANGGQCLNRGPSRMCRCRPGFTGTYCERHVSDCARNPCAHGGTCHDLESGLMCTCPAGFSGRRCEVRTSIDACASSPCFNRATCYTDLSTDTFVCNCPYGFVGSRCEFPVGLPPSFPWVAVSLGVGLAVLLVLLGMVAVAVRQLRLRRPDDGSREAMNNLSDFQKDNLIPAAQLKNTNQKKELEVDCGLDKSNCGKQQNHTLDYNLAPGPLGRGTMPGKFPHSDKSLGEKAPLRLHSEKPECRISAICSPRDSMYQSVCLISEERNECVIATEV
Procedure: Additionally, in order to determine cross-reactivity of the bispecific VHHs to murine and cynomolgus DLL4, a FACS binding experiment is performed. Briefly, CHO cells overexpressing mouse and cynomolgus DLL4 are used for a titration binding experiment of the VHHs. After a 30 min incubation on ice, all samples are washed and a 2-step detection using anti-c-myc followed by goat-anti mouse IgG-PE labeled is performed. CHO cells overexpressing human DLL4 are taken as reference. The mean MCF value is determined using a FACS Array and used for calculation of the EC₅₀ value (Table 24; FIG. 19).

recombinant human DLL4 [5] = target: T8, recombinant human DLL4 (human, UniProt Q9NR61 25-522); test: cell-based or functional assay
recombinant human DLL4 [6] = target: T8, recombinant human DLL4; test: SPR Biacore T100; rhDLL4 on chip; heterogeneous binding curve, no 1:1 fit

T6 sequence (D3ZHH1 28-530 limits assumed): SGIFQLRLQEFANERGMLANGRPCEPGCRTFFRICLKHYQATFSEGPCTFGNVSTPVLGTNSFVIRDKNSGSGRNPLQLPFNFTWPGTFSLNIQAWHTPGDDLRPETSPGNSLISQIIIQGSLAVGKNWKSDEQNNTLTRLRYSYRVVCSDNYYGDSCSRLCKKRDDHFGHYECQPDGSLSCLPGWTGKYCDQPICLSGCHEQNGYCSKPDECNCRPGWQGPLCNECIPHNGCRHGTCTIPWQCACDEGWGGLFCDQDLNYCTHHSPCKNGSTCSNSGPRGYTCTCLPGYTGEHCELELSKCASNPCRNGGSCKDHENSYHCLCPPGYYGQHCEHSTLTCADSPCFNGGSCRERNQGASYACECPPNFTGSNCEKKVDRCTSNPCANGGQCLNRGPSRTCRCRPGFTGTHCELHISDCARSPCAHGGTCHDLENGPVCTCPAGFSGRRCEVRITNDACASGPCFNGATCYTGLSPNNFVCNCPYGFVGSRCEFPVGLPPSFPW
T5 sequence (Q9JI71 27-532): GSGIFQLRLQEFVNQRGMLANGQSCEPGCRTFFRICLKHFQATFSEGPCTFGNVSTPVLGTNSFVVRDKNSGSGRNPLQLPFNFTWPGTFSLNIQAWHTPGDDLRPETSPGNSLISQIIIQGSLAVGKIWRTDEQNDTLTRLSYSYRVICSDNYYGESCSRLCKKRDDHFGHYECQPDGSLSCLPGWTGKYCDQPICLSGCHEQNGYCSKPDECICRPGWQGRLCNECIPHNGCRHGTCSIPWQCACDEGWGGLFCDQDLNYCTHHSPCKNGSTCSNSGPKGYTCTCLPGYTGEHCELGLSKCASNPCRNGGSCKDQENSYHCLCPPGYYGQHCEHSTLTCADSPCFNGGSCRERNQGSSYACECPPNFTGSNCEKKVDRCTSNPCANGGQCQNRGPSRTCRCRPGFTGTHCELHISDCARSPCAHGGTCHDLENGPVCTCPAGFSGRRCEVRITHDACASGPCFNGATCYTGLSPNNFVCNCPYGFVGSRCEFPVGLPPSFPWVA

B1: DLLBII56A09 (VHH)
VHH: EVQLVESGGGLVQPGGSLRLSCAASGFTFDDYAIGWFRQAPGKEPEGISCISSSGGITYYADSVKGRFTTSRDNAKNTVYLQMNSLKPEDTAVYYCATPGIAACRGIHYTGQGTQVTVSS
notes: also called 56A9; DLLBII56A9; not shown: C-terminal c-myc and His6 tags
concentration giving complete inhibition, HUVEC proliferation assay [1]: 10 µM
IC50, DLL4/Notch1 reporter assay (luciferase; co-culture with HEK293-hDII4) [2]: 540 nM
binding result [3]: no binding (tested: 2.5e-7 M)

B2: 00956 (VHH)
VHH: EVQLVESGGGLVQPGGSLRLSCAASGFTLDDYAIGWFRQAPGKEREGVSAIRSSGGSTYYADSVKGRFTISSDNSKNTVYLQMNSLRPEDTAVYYCAAVPAGRLRFGEQWYPLYEYDAWGQGTLVTVSS
IC50 (read off the curve) (mouse Ang2): ~2 nM
IC50 (read off the curve) (cynomolgus Ang2): ~2 nM
IC50 (read off the curve) (human Ang2): ~1 nM

B3: DLLBII00018 (VHH)
VHH: DVQLVESGGGLVQPGGSLRLSCAASGRTFSSYAMAWYRQAPGKEREYVAAIRWSGGTAYYADSVKGRFTISRDNAKNTVYLQMNSLRPEDTAVYYCANRAPDTRLAPYEYDHWGQGTLVTVSS
EC50 (recombinant mouse DLL4): 3.3 nM
EC50 (rat DLL4): 2.6 nM
EC50 [4]: 0.8 nM

B4: DLLBII104G01 (VHH)
VHH: EVQLVESGGGLVQAGGSLRLSCAASGFTFDDYAIGWFRQAPGKEREGVSCISSSDGSTYYADSVKGRFTISSDNAKNTVYLQMNSLKPEDTAVYYCATAWCDSSWYRSFVGYWGQGTQVTVSS
notes: also called 104G1; not shown: C-terminal c-myc tag and His6 tag
IC50 (nM) in the DLL4 proliferation assay (HUVEC, experiment 1) (recombinant human DLL4 [5]): 103 nM
IC50 (nM) in the DLL4 proliferation assay (HUVEC, experiment 2) (recombinant human DLL4 [5]): 32 nM
kon (recombinant human DLL4 [6]): 120000 M⁻¹ s⁻¹ and 150000 M⁻¹ s⁻¹
